A protein production outcome set (Wang et al. 2014)

Test: label from the status in PepcDB records

Sequence | protein production
RFEGGDHDLIPNNDAQNAAVNRALNAEDFALVHGPPGTGKTYTIATLVQAFVARGDRVLVSAFTNRAVDNALDALRQQGHEDIVRVGTETGVRADMQDLRLDRSGDPGERAAALRSAPVVAATTATCGSRILRELEFDVVLVDEASQLTEPDTLAAINRGARFVLVGDHEQ | failed
MDSNWINCPSVFSSSSSSSRRCQSRSDLYLGGGYEDLEGEDDLKAEFICPFCAEDFDIVGLCCHIDEEHPVEAKNGVCPVCTKRNLCLFLDERFYVQRRRRLRRGGYSSTYLALKKELREANLQSLLGGSSSFTSSTNIDSDPLLSSFMFNSPSVNQSANKSATPVTVGNAATKVSIKESLKRDIQEAPLSGEDQEKAKKSEFVRGLLLSTMLEDDF | failed
MAVRQVTVGYSDGTHKTMPVRCDQTVLDAAEEHGVAIVNECQSGICGTCVATCTAGRYQMGRTEGLSDVERAARKILTCQTFVTSDCRIELQYPVDDNAALLVTGDGVVTAVELVSPSTAILRVDTSGMAGALRYRAGQFAQLQVPGTNVWRNYSYAHPADGRGECEFIIRLLPDGVMSNYLRDRAQPGDHIALRCSKGSFYLRPIVRPVILVAGGTGLSAILAMAQSLDADVAHPVYLLYGVERTEDLCKLDELTELRRRVGRLEVHVVVARPDPDWDGRTGLVTDLLDERMLASGDADVYLCGPVAMVDAARTWLDHNGFHRVGLYYEKFVASGAARRRTPARLDYAGVDIAEVCRRGRGTAVVIGGSIAGIAAAKMLSETFDRVIVLEKDGPHRRREGRPGAAQGWHLHHLLTAGQIELERIFPGIVDDMVREGAFKVDMAAQYRIRLGGTWKKPGTSDIEIVCAGRPLLEWCVRRRLDDEPRIDFRYESEVADLAFDRANNAIVGVAVDNGDADGGDGLQVVPAEFVVDASGKNTRVPEFLERLGVGAPEAEQDIINCFYSTMQHRVPPERRWQDKVMVICYAYRPFEDTYAAQYYTDSSRTILSTSLVAYNCYSPPRTAREFRAFADLMPSPVIGENIDGLEPASPIYNFRYPNMLRLRYEKKRNLPRALLAVGDAYTSADPVSGLGMSLALKEVREMQALLAKYGAGHRDLPRRYYRAIAKMADTAWFVIREQNLRFDWMKDVDKKRPFYFGVLTWYMDRVLELVHDDLDAYREFLAVVHLVKPPSALMRPRIASRVLGKWARTRLSGQKTLIARNYENHPIPAEPADQLVNA | failed
FQKYQYPIYYGNAIFLADSPKKIDTPLYSPIKIAFEKALKNAKDSVFIASSYFIPGKKMMKIFKNQISKGIELNILTNSLSSTDAIVVYGAWERYRNQLVRMGANVYEIRNDFFNRQIKGRFSTKHSLHGKTIVFDDNLTLLGSFNIDPRSAYINTESAVLFDNPSFAKRVRLSLKDHAQQSWHLVVYRHRVIWEAVEEGILIHEKTSPDTSFFLRLIKEWSKVLPEREL | failed
KLGMKPVSDVSRVTIKRAKNVLFVISKPDVYKSPNAETYVIFGEAKVDDLSSQLQTQAAQRFKMPDVTSMLPNAGSEATMAPLAEEEDEDDVDDTGVEARDIDLVMTQAGVSKAKAVSALKANDGDIVSAIMELTT | failed
MVSPKKESKSMKILKNLALPIAMALGVLAWPILSPLSFLIPYMIFLMLFFTFLKISPRDMHFSRLHLLLALIQITLAIGGFFAFRLLDPIVAEGVMICFICPAATASSVIIGMLGGNIAFGATYVLLTHMGVAVLGPLLFSSLSTAHADMPFWSSVIHILWGVLPLVVVPLLAAWIIRFTSPRTHARLLRIPQMAFWLWVTSLAIIMAKTTGYVMAQGSDSIRLELLLALGGLLSCLLQFGLGKWLSKRYLKESITAGQALGQKNTSLAIWMSLTYLNPIASIAPASYVVWQNSLNSIQIWLYDKRKNKTDRQ | failed
MSSVERYLSQLVKTEPQLETLKELYIGKKWHQLTEELLKLIHSGQVNRINLVELYDSFIREFESSLNPLALVRILVGIARKNYRDLNKALEFVDYATNSKAFISADEEASLFLKSETARLKLEGGNLSGVKQILEEVGVAMESTRDLDTVVHSSYHRVCAQYYKAVGPATKYYSSALLFFQYAPLDSFTVEERVHWAYDLGVASIVAETIFNFGEILEYDIMQSLKSEKLQWLLELLEAFKYGSIEKFNQVSNDHMSYYFVL | failed
MCILGTTAKSLRLASVYGLSLFILFIVPLYLWQSTAAKMIAEVDWLDVATEGALFVLGMCWLMVIVSVRPSGRVTNLLIAGLSSYCLGCYLDLLDEIFIVKTLPIYNWFEKMPTPVGLLVLTGGLWLWRDEQTVVNRQLQTREQFHREHQLTDSLTLLNDAKAFEHHLVKQLSQNQSVGLLMLDVDYFHRYNKNQGVEEGDKLLSQLALWLSSTLRNQDLVCRYAGDRFVILLRGAIPSFVSVMAEQLQHGIKAFDCSATVVWTLPSPKMLPLQNSTCTAKEEAIALLQVLNQKMSQQKELRVSEAIAPSPFNTLDKSAASELN | failed
MFSIIWMLFTPLLLLCGIAGGIFLIVTGIKYRKLLVGLMGLLSLSFVTLPFVLLSVGIHIDTIFPIPTALYWTLFSLTGLLAGVSGVQAKIKSIRNMGFIIFTIGILGVIFWELMSVGDSFYI | failed
MKKISIEERPDWRATAEREGFNFHTIDGERYWDERGYYLFTEQQITRDLEAPTQALHQMCMDAVARVVDSEELLHQLAIPPAFFDVIQTSWKQGHPHLYARFDFAYDGTGPAKMYEINADTPTSLMEAGAFQLLWLEEQMARGVLPAHASQFNSIAEDLVRAFAEFPGASPFYFAAMSGSVEDRVTTDFLRRMAAHVGIDARHIDIEDIGLNDQGRFVDLDGRWIERLFKLHAWEHIFHEAFGKNVTASGTQFVEPAWKAILSNKGILPLLWQFNEGHPNLLPSRVDQDVTKPVPKGWVRKPYFSREGANIEMRTPGDQVIAVDGPYTDAPYILQAYSPLPKFGDSYTLIGSWVIGDLASGIGIREDDSLITKDTSRFLPHVVID | failed
MARYINITLEKRGVTCKALLLDDVAPRTSKAVWDALPQSSQVFHGKYARNEIYNLVPAFAPKEPGAENTTVTPIPGDVCYFTFTSNDLKTPSHGYEADSGTDEVQTIVDLAVFYGRNNLLLNGDTGWVPGNVFATIVEGLDEMAAACQDIWMGGARDETLTFSRAEDTA | not failed
MLHLQTFGDLRLIETNGDAIRYPIKGLLMMAHLYAGASHELSRYELAQFLWNDVESELARLNLRKLLSRIRETDGGRAEIPFDFTATTVRLNTQAVSSDLDIFRAGGSPLERLNAIAELTQRGFIGNIKPATKLIEAWIRAQRDAQALQLRQALLDALPDAQKPGAARSISGAALQILERDPNDEQVRALLHQLSGGSSLSERLPNGDGHARVQVKRSEAGGETTADIERVSQAPLILPRLVLLPPTSKHADAGLALANALIEDVTIELCALRNISIVAPHTAGQIRRDSEKAAVVARHSIAYLLDTRLSEEGLFAQLVYFPTDEIIWANRFTMTPDILPRQRRLIAQQLTMSVARELAENEEERLRFEANPEAYHAYLVGSSLMSKLTLPHIRRARKAFKQSLSHKADFSPSFTGLARTFTSEWLVTAQGNNELLHLAEQNALRAIERDPASAAGHRELGVTKLYLGDVDASVAALDLAEQLSPHFADVIYSHADTLVHASRPGDALAKIRRAISLNPIAPDAYLWCAAGASFFLEQYEEAIAYVEAMKDKAPAHRIAAASCAMIGDRKRALFHRQRAESINPVFDVEKWLAIVPFKEDWQKELYREGLLKAGF | failed
TGQDAYGQVTEMQYVVYAFSKVETIFSDMYAFAALKTDGSVVTWGYSDYGGDSSSVAGQLTSGVKVIDSTSSAFAAIKEDGSVVTWGDSPYGGDSSSVAGKLTSGVKVIYSNSSAFAAVKQDGSVVTWGSYGGDSSSVAGQLTSGVKVIYSTDSEFGAFAAVKEDGSVVTWGNSPYGGDSSSVAGQLTSGVKVIYSTNNAFAAVKEDGSVVTWGDSGAGGDSSSVAGQLT | failed
MTNVISYNNDKGLLAYIQFLADRALKPSNGNTDPVFDFEDALDQTEMAQLAVDELKKIPEVNTLFAERWLPAPFNLDDLAKLPEGTLGHVYAIEMKARGFDPYFYKKVPVVDDISYLKMLWRSTHDIYHVVAGFDTDGIGEIGLQAFVLAQTPIPISVMLVSFGMVMTSLYQPAKFQDLMAEIARGYSLGSHTPRKLIAQKWDQFWDVPVIEIRECLGMNTVKQRERA | failed
MEKKPWEEDISIEEFKKSLNKDKITNLIIKRRWNKGKSTYHLSFNGDFEVVTKKPSTKYVTHKQLDQKLKEFKQDLMVELHDTFATKADLRDSEARINQKLEALVQVVLLHGEQINKLTQIVEKQGEQIRELQVEQKAQRQEFNARMDRLENLLVESIESTNKRFDSIEGRLDSMDSRLDSMENRLDSIEGRLDSVEGRLDSVEGRLDSMENRLDSMETRLDKIDPPK | failed
MGLLVILNIVMRIPSIPHEKGYDSFFIHSLANSVANFGVAQWWINWMSVFGLYPYSYASAVPFTLSGMSQLTGIRMEIVILLFCVLLGLFSIFASYSLATVLYDNFLHRFLFAVIFSSSAGTLNLTTWEITTRAQILVFFPFLLYLLFQIIKFKTKFVMLFIVTALLLLATHHFVYMGLFYSGLIFIVALIYKLNRNQPFQIQKTQLRNINLNYMYISSVFFLIILIFLYGSKWGLITSGSRYAWIIDILMITGRNVGLTLLLSIGALIYYIFKKDKLLDEWAILICLIPTLIFSFNQTYGYLTTYLFVTLLGSAGLFNVIKNQKQNRKVVAATVVILIILNITFSTFFVHYRLGIGGGNSEWYMSEETYNTGEWIKENISWDKKAVSNSMQGNRLFASYGGQPVLYRDDISNYMNGFVTLNESKIEKKSPFSKSFYLDNPYVLKSGTTTSGLYSWISQYPITSENSQNFINGNNISYFYDDSLNYNRLFGSLPQSKNSIYNSGRMRIWEN | failed
MGFHLRGNNDFAFKRLYINLPQNSQMRAQLRRLIDNGSDTVVVSDKQDADAFLDVLSENRVKTISSLTPQGVVREYRITYRFSFQLRDAHDNLLIPPSEITLFRDLSYNETQVLAKDYEEAALYRDMQGDIVNQLVRRLASVRLPSLEHHHHHH | not failed
MIIAIPVSENRGKDSPISEHFGRAPYFAFVKVKNNAIADISVEENPLAQDHVHGAVPNFVKEKGAELVIVRGIGRRAIAAFEAMGVKVIKGASGTVEEVVNQYLSGQLKDSDYEVHDHHHHEHH | not failed
MVSLTKRCIAEFIGTFILVFFGAGSAAVTLMIASGGTSPNPFNIGIGLLGGLGDWVAIGLAFGFAIAASIYALGNISGCHINPAVTIGLWSVKKFPGREVVPYIIAQLLGAAFGSFIFLQCAGIGAATVGGLGATAPFPGISYWQAMLAEVVGTFLLMITIMGIAVDERAPKGFAGIIIGLTVAGIITTLGNISGSSLNPARTFGPYLNDMIFAGTDLWNYYSIYVIGPIVGAVLAALTYQYLTSE | not failed
MTQYTHIRNATGKLTIKNTTFLIDPFLAPKDTYPGFEGTFNYQQRMPMVDLPLSMDDLLSNVTAVVVTHTHLDHWDDTAINSIPKSLPIFVQNTADKELITSQGFIDVRIIFESLEFNGITLRKTGGSHGTVEMYANPVLAPLAGDAMGVIFEAADEPTVYLVGDTVWTSDVEKALLRFDPNVIIMNTGYAQILGFEDSIIMGTKDIGRMVVRKPEAKIIAVHMDTVNHTATSRKDVRKFIKGNNIESHVAVPEDGETITL | not failed
MCEGHTRNDPCERRHDPGARVRRKAGKIRSMILVFFSLCLGALIGALFRFPWYMLFLLAAIFWKRNKDISVVIFFTLLSASLYQIGTLPAGNYELVGYAERGRLKQVKVFQEEWKRIHPVRIETSEEGYVYAIGYFDGKAFHPSYLKKVEKPSLKTLKESFSGMANGTVLSVLFGEKNGDIYRSGLGHFFAVSGLHVGIAFSLYTTLLSFLTWRRTYQELTALLLLVPYVIAVGTPSVIRAYLTIFLWVAFKIFGFRTTPLHTTATVGSFMMIVDPTVVFTPSFLLSFFVTLCILESKNIFELTVKAYLSALPFLCLFFGGTNMSALVLSIPVSLLMIPVTWLAHLSFLLFLLGLKTSALIAAKITNIVSLPLNGFIKLANLLPEVPLPQYLYFILIFFPLLFLSPDIRDIFRKISGRAIL | failed
